Laboratory results published in patent publication EP4631974A1 (Nanjing Vazyme Biotech Co., Ltd., dated 2025).

Columns and labels:
RSV A2 pre-F protein [1] = biological target: T1, RSV A2 pre-F protein (respiratory syncytial virus (RSV) A2, UniProt P03420 26-513); test: ELISA, plate-coated RSV A2 pre-F, anti-human IgG Fc-HRP detection
T1 construct: House-made by Vazyme; also called RSV 2A pre-F protein

RSV A2 pre-F protein [2] = biological target: T1, RSV A2 pre-F protein; test: ELISA, plate-coated RSV A2 pre-F, anti-human IgG Fc-HRP detection (2-fold dilutions from 1 ug/mL)

Row | Binder | EC50 (RSV A2 pre-F protein [1]) [µg/mL] | EC50 (RSV A2 pre-F protein [2]) [µg/mL]
1 | F6-210 (antibody, V domains shown, Human IgG1 expressed in CHO cells; heavy = VH + IgG1 constant region, light = VL + CL) VH: QERLAQSGTEVKKPGASVKVSCRALGYTFSDYSIHWVRQAPRQGLEWMGKINTSGGTTTYAQKFQARVTLTSDTSTSTASMELSSLKIEDTAVYYCVAYERATTLAGAGASDIWGQGTLVTVSS VL: DIVMTQSPLSLPVTPGEPASISCRSSQSLLHSDGYNYLDWYLQKPGQSPHLLIYLGSNRASGVPDRFSGSGSGTDFTLKITRVEPEDVGVYYCMQSLQTPFTFGPGTKVDVKR | 0.028 | 
2 | F6-63 (antibody, V domains shown, Human IgG1 expressed in CHO cells; heavy = VH + IgG1 constant region, light = VL + CL) VH: QVQVVESGGGVVEPGGSLSLSCAASGFSFKMHAMHWVRQAPGKGLEWVAFIPYDGSSQYYADSVKGRFTIYRDNFKNTLYLQMNSLRVEDTSLYYCARGGEEGAWSWIGYNSYMDVWGRGTAVTVSS VL: QSALTQPASVSGSPGQSITISCSGTSSDVGGYDYVCWYQKHPGESPRLIIYDVSRRPSGVSNRFSGSKSGNTASLTISGLQAEDEADYSCSSYTSSNTLIFGGGTKLTVLG |  | 0.016
